Assay results reported in patent publication US12698507B2, “Methods and compositions for conferring and/or enhancing herbicide tolerance using protoporphyrinogen IX oxidase of various cyanobacteria or variant thereof” (FarmHannong Co., Ltd., priority 2019, dated 2026).

Tested on: PPO-deficient BT3 E. coli (ΔPPO)
Test: PPO-inhibiting herbicide tolerance test of PPO variants in E. coli (growth on herbicide-containing LB agar)
Type: cell-based
Settings: CyPPO19 variants in BT3 (ΔPPO) E. coli; LB agar with 0 to 2,000 μM herbicide, 37° C., dark, 16-20 hours
How it was run: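 Tolerance was scored against wild-type enzyme: '−' for equal growth, one '+' per 10-fold gain, up to '+++++'. ΔPPO BT3 cells carrying variant plasmids, spotted as a 10-fold dilution series from OD600=0.5, grew 16-20 h at 37° C. in the dark on ampicillin LB agar containing 0 to 2,000 μM herbicide.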

Row | Molecule | tolerance level relative to wild type, Carfentrazone | tolerance level relative to wild type, Flumioxazin | tolerance level relative to wild type, Fomesafen | tolerance level relative to wild type, Oxyfluorfen | tolerance level relative to wild type, Saflufenacil | tolerance level relative to wild type, Sulfentrazone | tolerance level relative to wild type, Tiafenacil
1 | CyPPO19 R89A + V165S + I408R + F360L: variant of CyPPO19 PPO protein (SEQ ID NO: 1) (protein, Synthetic_PPO of Thermosynechococcus elongatus PKUAC-SCTE542 (comprising GenBank No. CP032152.1)) MSEVDVAIVGGGLSGLSLAWRLQQSAPQYSVVLLEASDRLGGNITTQTAEGFVWELGPNSFAPTPALLQLIAEVGLQSELIRGDRHLPAYIYWRGQLYPLQPTRPLALATSNLLSPWGKVRAALGALGFVPPYLGSGDESVNSFFRRHLGQEVAERLVAPFVSGSYAGDPQQLSAAAAFRRIAQLEKLGGGLIAGALHLRRQQAPKPKPPTSVQMRPGELGSFKEGLAALPRAIAQQLKAPIHLQTPVQEITPDPKGGYLLRSGEQTWRARSVVLATPAYQTAELVAPFQPAIARVLATIPYPTVACVVLAYPAGLGRSVRPGFGVLIPRSQGIRTLGTIWSSCLFPQRTPAGWQVFTSLIGGATDPDLASLSEEAIVQQVQQDLNRLLDLPAAKARLLGMKVWRRARPQYMVGYPEQWQQVTHALSQTPGLFLCSNYAEGVALGDRVEHGNRTAAAVAAYLSGGQP | + (‘+’ per each 10-fold resistance) | ++++ (‘+’ per each 10-fold resistance) | ++ (‘+’ per each 10-fold resistance) | ++ (‘+’ per each 10-fold resistance) | ++++ (‘+’ per each 10-fold resistance) | +++ (‘+’ per each 10-fold resistance) | ++++ (‘+’ per each 10-fold resistance)
2 | CyPPO19 R89A + A167L + V305L + F360T: variant of CyPPO19 PPO protein (SEQ ID NO: 1) (protein, Synthetic_PPO of Thermosynechococcus elongatus PKUAC-SCTE542 (comprising GenBank No. CP032152.1)) MSEVDVAIVGGGLSGLSLAWRLQQSAPQYSVVLLEASDRLGGNITTQTAEGFVWELGPNSFAPTPALLQLIAEVGLQSELIRGDRHLPAYIYWRGQLYPLQPTRPLALATSNLLSPWGKVRAALGALGFVPPYLGSGDESVNSFFRRHLGQEVAERLVAPFVSGVYLGDPQQLSAAAAFRRIAQLEKLGGGLIAGALHLRRQQAPKPKPPTSVQMRPGELGSFKEGLAALPRAIAQQLKAPIHLQTPVQEITPDPKGGYLLRSGEQTWRARSVVLATPAYQTAELVAPFQPAIARVLATIPYPTLACVVLAYPAGLGRSVRPGFGVLIPRSQGIRTLGTIWSSCLFPQRTPAGWQVFTSTIGGATDPDLASLSEEAIVQQVQQDLNRLLDLPAAKARLLGMKVWRRAIPQYMVGYPEQWQQVTHALSQTPGLFLCSNYAEGVALGDRVEHGNRTAAAVAAYLSGGQP | + (‘+’ per each 10-fold resistance) | ++ (‘+’ per each 10-fold resistance) | ++ (‘+’ per each 10-fold resistance) | ++ (‘+’ per each 10-fold resistance) | +++ (‘+’ per each 10-fold resistance) | ++ (‘+’ per each 10-fold resistance) | +++ (‘+’ per each 10-fold resistance)
